Among the data in paper PMC8231783 are intensity change of the selected cladding mode values, retold here.

The target of the assay is transient receptor potential (TRP) channels. Kind of assay: SPR; plasmonic tilted fiber Bragg grating (fiber-optic SPR) probe; TRP immobilised on the 50 nm gold film through 11-mercaptoundecanoic acid and EDC/NHS; CaM (0.1 nM to 10 uM) injected in a microfluidic capillary; 50 mM Tris-HCl, 100 mM NaCl, 1 mM DTT, 1 mM CaCl2, pH 7.5; read-out is the intensity change of a cladding mode. On the technique in general: In SPR one partner is held on a chip, and binding of the other changes the refractive index at the surface.

In the case of “calmodulin (from UniProt P0DP23 1-149) (natural protein)”, the intensity change of the selected cladding mode at 1 uM CaM, 30 min was found to be 1.7 dB.
